The source of these data is the nanobody polyreactivity screen of Harvey et al. (2022).

The nature of this series: yeast display, Sf9 membrane polyspecificity reagent, FACS + sequencing; frameworks hold sequencing errors. In a few lines: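 Nanobodies came from a synthetic yeast display library in Saccharomyces cerevisiae BJ5465, induced with galactose for 36–48 hours and stained for 1 hour at 4 °C with 10% biotinylated, detergent-solubilized Sf9 membrane reagent. Cells were enriched on streptavidin microbeads and then FACS-sorted, with low and high (top ~1%) gates set on anti-HA fluorescence for expression and streptavidin fluorescence for reagent binding. Each polyreactivity label reflects the gate a clone came from. Genes were amplified by colony PCR, sequenced by MiSeq 2 × 250 and filtered by CDR length.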
“QVQIVESGGGLVQAGGSLRLSCAPSGRTFVGFAKGWYRQAPGKERELVAAISRTGGSTYYADSVKGRFTISRDNAKNTVYLQMNSLKPEDTAVYYCNAVTLSSTYGGHDYWGQGTQVTVSS”: the “polyreactivity (PSR sort gate)” value is listed as “high polyreactivity”.
Then “QVQIVESGGGLVQAGGSLRLSCASSGSTFVSYDMGWYRQAPGKERELVADISWSGVSTYADSVKGRFTISRDNAMNTVYLQMNSLKPEDTAVYYCAKDSDLYQRGGYYWGQGTQVTVSS”, with “low polyreactivity”.
As for “QVQIVESGGGLVQAGGSLRLSCDASGFTFFKYAMGWYRHAPGKERELVATISIDCITNYADSVKGRFTISRDNAKNTVYLQMNSLKPEDTAVYYCNARSLYQQLGYWGQGTQVTVSS”, the “polyreactivity (PSR sort gate)” value is “low polyreactivity”.
Then “QVQIVESGGGLVQAGGSLRLSCPASGRIFYNNAMGWYRPAPGKERELVAAINWSGGSTYYADSVKGRFTISRDNAKNTVYLQMNSLKPEDTAVYYCNADPHGYYGYGYDYWGQGTQVTVSS”, with “low polyreactivity”; and “QVQIVESGGGLVQAGGSLRLSCPASGSTFSRYAMGWYRQAPGKERELVAAISWSGGRTYYADSVKGRFTISRDYATNTVYLLMNSLKPEDTAVYYCAARKLVVILREEYWVQGTQVTVSS”, with “high polyreactivity”; and “QVQIVESGGGLVQAGGSLRLSSAASGSIFPAYAMGWYSLAPWKERELVASITGSGGTTYYADSVKGRFTISRDNAKNTGYLQMNSLKPVDTADNYCNARYYVYSATVDRYGYWGQGSQVTVSS”, with “high polyreactivity”.
The same measure for “QVQIVESGGGLVQAGGSLRLTCAASGFIFSRYAMGWYRQAPAKERELVAAITSGGRTNYADSVKGRFTISRDNAKNTVYLQMNRLKPEDTAVYYCSGAFYPFWPRYTSDYWGQGTQVTVSS”: “high polyreactivity”.
On to “QVQIVESGGGLVQAGGSLRLTCAASGLISTYYVMGWYRQAPGKERELVAAIRASDASTYYADSVKGRFTISRDNAKNTVYLQMNSLKPEDTAVYYCATDSYYVDDTEYDYWGQGTQVTVSS”, for which the “polyreactivity (PSR sort gate)” value was “low polyreactivity”.
Turning to “QVQIVESGGGLVQAGGSLRLTCAASGSIFGYYAMGWYRQAPGKERELVAAITTGGSTSYADSVKGRFTISRDNAKKTVYLQMNSLKPEDTAVYYCNARFKLLFGRADDYWGQGTQVTVSS”, the “polyreactivity (PSR sort gate)” value is reported as “low polyreactivity”.
With “QVQIVESGGGLVQAGGSLRVSCAASGSIFKIYAMGWYRQAPGKERELVASITGSGGSTYYADSVKGRFTISRDNAKNTVYLQMNSLKPEDTAVYYCAAAVLGSSTSEVDPDRPEYYYWGHGTQVTVSS”, the “polyreactivity (PSR sort gate)” value is “low polyreactivity”.
Then “QVQIVESGGGLVQAGGSLRVSCAASGSTFAVYAMGWYRQAPGKEREMVAAISQSGGSTNYADSVKGRFTISRDNAKNTVYLQMNSLKPEDTAVYYCNVDVSRSWAQPYTYDYWGHGTQVTVSS”, with “low polyreactivity”; and “QVQIVESGGGLVQAGGSVRLSCAASGRTFYYNAMGWYRQAPGKERELVASISSSDSDTYYADSVKGRFTISRDNAKNTVYLQMNSLKPEDTAVYYCAAEYYWDLTFTRYDYWGQGTQVTVSS”, with “low polyreactivity”.
Then “QVQIVESGGGLVQAGGTLRLSCAASGLTFAYYDMGWYSQAPGKERELVAAITSVGTTNYADSVKGRFSISRDNSKNTVYLKMNSLKPEDTAVYYCNADYFSRIVGDRIYDYCGQGTQVTVSS”, with “low polyreactivity”; and “QVQIVESGGGLVQAGVSLRISCAASGSTFADYTMGWYRQAPGKERELVAAISQSGARTYYADSVKGRFTISRDNAKNTVYLQMNSLKPEDTAVYYCAATKAASGPYFRYYYWGQGTQVTVSS”, with “high polyreactivity”.
“QVQIVESGGGLVQARGSLRLSCAASGRTFYGYALGWYRQAPGKERELVASIRSRTGSTYYADSVKGRFTISRDNAKNTVYLLMNILKPEDTAVYYCARPYYAKGFAFDYWGLGTQVTVSS”: the “polyreactivity (PSR sort gate)” value was “high polyreactivity”.
“QVQIVESGGGLVQARGSLRLSFAASGFTFSHYAMGWYRQAPGKERELVAAISASGGRTYFADSVKGRFTISRDNAKNTVYVQMNSLKPEDTAVYYCAAKLYDCGGRYWYVYWGQGTQVTVSS”: the “polyreactivity (PSR sort gate)” value is listed as “high polyreactivity”.
Take “QVQIVESGGGLVQGGGSLRLSCAASGSIFGGNAMGWYRQAPGKERELVATITVRGGSTYNADSVKGRFTISRDNAKNTVYLQMNSLKPEDTAVYYCAARGVYLLPKYDYWGQGTQVTVSS”: the “polyreactivity (PSR sort gate)” value is reported as “low polyreactivity”.
For the sequence “QVQIVESGGGSVQAGGSLRLSCADSGFTFRKNAMGWYRQAPGKERELVAAISVSGGRTYYADSVKVRFTISRDNAKNTFYLQMNSLKPEETAVYYCAARRYVLVHKYDYWGQGTQVTVSS”, the “polyreactivity (PSR sort gate)” value was “high polyreactivity”.
In the case of “QVQIVESGGVLVQAGGSLRLSCAASGLTLKRYAMGWYRQAPRKERELVASITGSGGSTYADTVKARFTISRDNAKNTVYLHMNSLNPEDTAVYYCAKDTRYEYVGSEYCFWGQGTQVTVSS”, the “polyreactivity (PSR sort gate)” value is recorded as “low polyreactivity”.
The same measure for “QVQIVESGRGLFQAGGSLRISCPASGYIFLANAMGLYRQAPGKERELVAAITSGGGGTYYADSVKARFTISGDNAKNPVYLLMNTLKPEDTAVYHCAADHGRDGSSIEYWGHGTQVTVSS”: “low polyreactivity”; for “QVQIVESGRGLVQAGGSLRLSCAPSGRIFIYNAMGWYIQAPGKERELVAAISWRGGRTYYADSVKGRFTISRDNAKNTVYLQMNRLKPEDTAVYYCNAEPYGYERLYDYWGQGTQVNVSS”: “high polyreactivity”.
Then “QVQIVESRGGLVQAGGSLRLSCAASGSNLHYYTMGWYRQAPGNEREFVAGISWSGGRTYYADSVKGRFTISRDNAKNTVYFQMNSRKPEDTAVYYCNRQARRGFHRYHLYGYGYWGQGTQVTVSS”, with “high polyreactivity”; and “QVQIVESVGGLVQAGGSLRLSCAASGSTFWFTDMGWYRQAPGKERELVAVITWTGGSTSYADSVKGRFTISRDNAKNTDYLQMKCLNAEDTADYYCDTPVKFGGVPYRYGYWGQGTEVTVSS”, with “low polyreactivity”; and “QVQIVETGGGLVQAGGSLRLSCAASGSIFSAYVMGWYRQAPGKERELVAAITRTGGRTYYADSVKGRFTISRDNAKNTVYLQMNSLKPEDTAVYYCAKEAITRTFPYRHEYWGQGTQVTVSS”, with “low polyreactivity”.
With “QVQIVETGGGLVQAGGSLRLSCEASGSTFRNYAMGWYRQATGKERELDAAISSGGSTNYADSVKGRFTISRDNAKNTVFLQMNSLKPEYTAVYYCAAKAWYYPGSRIYYQYYYWGQGTQVTVSS”, the “polyreactivity (PSR sort gate)” value was “high polyreactivity”.
The same measure for “QVQLAESGGALVQAGCSLRLSCSASGYTSAKNVMGWYIQAPGKERELVAAISRSGGRTYYADSVKGRFTISRDNAKNSVYLQMNSLKPEDTAVYYCAARSATNHADDYYYWGQGTQVTVSS”: “high polyreactivity”; for “QVQLAESGGGLVQAGGSLRLSCAASGSTFVSYAMGWYRQAPGKERELVAAIDWSGGNTDYADSVKGRFTISRDNAKNTVYLQMNSLKPEDTAVYYCNADSWPRRGYDYWGQGTQVTVSS”: “low polyreactivity”.
As for “QVQLAESGGGLVQAGGSLRLSCAASGSTFVWYAMGWYRQAPGKEWELVAVIDWSGGSTSYADSVKGRFTISRDNAKNTVYFQMNSLKPEDTAVYYCAADYGHYYGLYYWGQGTQVTVSS”, the “polyreactivity (PSR sort gate)” value was “low polyreactivity”.
The same measure for “QVQLDESGGGLVQAGGSLRLRCAASGFIFVSYAMGWYRQAPGKERELVAAISRGGGSTYYADSVKGRFTISRDNAKNTVYLQMNSLKPEDTAVYYCAAGRFYIDDYWGQGTQVTVSS”: “high polyreactivity”.
Then “QVQLEDSGGGLVQAGGSLLLSCPASGRIRYGMGWYRQAPGKERELVATITRGGSTNYADSVKGRFTISRDNAKNTVFLKMISLKPEDTAVYYCNAGSSWYYWRGYAYDYWGQGTQVSVSS”, with “high polyreactivity”; and “QVQLEDSGGGLVQAGGSLRLICAASGSIFGSYAMGWYRHAPGKERELVAAINSGGSTNYADSVKGRFTISRDNAKNTVYLQMNSLKPEDTAVYYCAARLYSNEYRYDYWGQGTQVTVSS”, with “high polyreactivity”.
The same measure for “QVQLEDSGGGLVQAGGSLRLICAASGSIFGYYAMGWDRQAPGKERELVAAIDSGGSTYYADSVKGRFTISRDNAKNTVYLQMNSLKPEDTAVYYCAAGVSSFSPYDSWGQGTQVTVSS”: “low polyreactivity”; for “QVQLEDSGGGLVQAGGSLRLSCAASGFIFLPNAMGWYRQAPGKERELVAAISTSDGSTYYADSVKGRFTISRDNAKNTVYLQMNSLKPEDTAVYYCAASYQFYRKYAYDYWGQGTQVTVSS”: “low polyreactivity”.
For the sequence “QVQLEDSGGGLVQAGGSLRLSCAASGFIFRYYAMGWYRKATGKERELVAAIDYSGGSTNYADSVKGRFTISRDNAKNTVYLQMNSLKPEDTAVYYCKAVHETTWQLYDYWGQGTQVTVSS”, the “polyreactivity (PSR sort gate)” value was “low polyreactivity”.
The same measure for “QVQLEDSGGGLVQAGGSLRLSCAASGGIFLTYTMGWYRQAPGKEREFVAAIRSSSGRTYYADSVKGRFTISRDNAKNTVYLQMISLKPEDTSVYYCNAKYYGYRVGKYYPFGYWGQGTQVTVSS”: “high polyreactivity”; for “QVQLEDSGGGLVQAGGSLRLSCAASGIIFYSYAMGWYRQAPVKERELVATISFSGDNTYYADSVKGRFTISRDNAKNTVYLQMNSLKPEDTAVYYCAAASTYGGYYYSVSFEYWGQGTQVTVSS”: “low polyreactivity”; for “QVQLEDSGGGLVQAGGSLRLSCAASGLTFYGYTMGWYRQAPGKERELVAAISWSGGNTYYADSVKGRFTISRDNAKNTVYLQMNSLKPEDTAVYYCAAEHWTYDWVDYWGQGTQVTVSS”: “low polyreactivity”.
The same measure for “QVQLEDSGGGLVQAGGSLRLSCAASGRTFRSNVMGWYRQAPGKERELVAAISKRGGSTFSADSVKGRFTISRDNAKNTVYLQMNSLKPEDTEVYYCAKDTPVYDYGTVYPDDYWGQGTQVTVSS”: “high polyreactivity”; for “QVQLEDSGGGLVQAGGSLRLSCAASGSIFILNTMGWYREAPGKERELVAGISYSGSTYYADSVKGRFTISRDNAKNTVYLQMNSLKPEDTAVYYCAADYGAAWYNDGYYYWGQGTQVTVSS”: “low polyreactivity”; for “QVQLEDSGGGLVQAGGSLRLSCAASGSTFYTYAMGWYRQAPGKERELVAAITFIDGSTYYADSVKGRFTISRDNAKNTVYLQMNSLKPEDTAVYYCAADDAKFRYRDDYWGQGTQVTVSS”: “low polyreactivity”.
For “QVQLEEAGGGLVQAGGSLRLSCAASGRTFFENAMGWYRQAPGKEREFVAAISYNGGSTYYADSVKGRFTISRDNAKNTVYLQMNSMKPDDTAVYYCAADPNYGYDYWGQGTQVTVSS”, the “polyreactivity (PSR sort gate)” value was “low polyreactivity”.
